Assay results from the RNAGym collection of RNA variant scans (doi:10.7554/elife.90254).

B1: LINE1-mini (parent)
chain: GGCAGAGCUCAACACAGCGUGGCAAAGUGGCUGUGGCUAGACUGCC

Variants of: B1
Experiment: self-cleavage, relative activity (ratio to wild type); higher = more cleavage; in vitro, sequencing; the parent is a self-cleaving ribozyme

Variant	self-cleavage
GGCAGAGCUCAACACAGCGUGGGAAAGUGGCUGUGGCUGGACUGCC [C23G A39G]	0.09
GGCAGAGCUCAACACAGCGUGGGAAAGUGGCUGUGGCUCGACUGCC [C23G A39C]	0.07
GGCAGAGCUCAACACAGCGUGGAAAAGUUGCUGUGGCUAGACUGCC [C23A G29U]	0.88
GGCAGAGCUCAACACAGCGUGGAAAAGUGGCUGUGGCUAGACUACC [C23A G44A]	0.61
GGCAGAGCUCAACACAGCGUGGAAAAGUGGCUGUGGCUAGACUUCC [C23A G44U]	0.28
GGCAGAGCUCAACACAGCGUGGAAAAGUGGCUGUGGCUAGACUCCC [C23A G44C]	0.51
GGCAGAGCUCAACACAGCGUGGAAAAGUGGCUGUCGCUAGACUGCC [C23A G35C]	0.14
GGCAGAGCUCAACACAGCGUGGAAAAGUGGCUGUAGCUAGACUGCC [C23A G35A]	0.23
GGCAGAGCUCAACACAGCGUGGAAAAGUGGCUGUUGCUAGACUGCC [C23A G35U]	0.22
GGCAGAGCUCAACACAGCGUGGGAAAGGGGCUGUGGCUAGACUGCC [C23G U28G]	0.89
GGCAGAGCUCAACACAGCGUGGGAAAGAGGCUGUGGCUAGACUGCC [C23G U28A]	0.7
GGCAGAGCUCAACACAGCGUGGGAAAGCGGCUGUGGCUAGACUGCC [C23G U28C]	0.66
GGCAGAGCUCAACACAGCGUGGGAAAGUGACUGUGGCUAGACUGCC [C23G G30A]	1.88
GGCAGAGCUCAACACAGCGUGGGAAAGUGUCUGUGGCUAGACUGCC [C23G G30U]	0.75
GGCAGAGCUCAACACAGCGUGGGAAAGUGCCUGUGGCUAGACUGCC [C23G G30C]	2.06
GGCAGAGCUCAACACAGCGUGGAAAAGUGGCUCUGGCUAGACUGCC [C23A G33C]	0.05
GGCAGAGCUCAACACAGCGUGGAAAAGUGGCUUUGGCUAGACUGCC [C23A G33U]	0.2
GGCAGAGCUCAACACAGCGUGGAAAAGUGGCUAUGGCUAGACUGCC [C23A G33A]	0.78
GGCAGAGCUCAACACAGCGUGGGAAAGUGGCUGUGGAUAGACUGCC [C23G C37A]	0.04

Variant	self-cleavage
GGCAGAGCUCAACACAGCGUGGGAAAGUGGCUGUGGUUAGACUGCC [C23G C37U]	0.02
GGCAGAGCUCAACACAGCGUGGGAAAGUGGCUGUGGGUAGACUGCC [C23G C37G]	0.01
GGCAGAGCUCAACACAGCGUGGAAAAGUGACUGUGGCUAGACUGCC [C23A G30A]	1.34
GGCAGAGCUCAACACAGCGUGGAAAAGUGUCUGUGGCUAGACUGCC [C23A G30U]	1.16
GGCAGAGCUCAACACAGCGUGGAAAAGUGCCUGUGGCUAGACUGCC [C23A G30C]	2.68
GGCAGAGCUCAACACAGCGUGGAAAAGUGGCCGUGGCUAGACUGCC [C23A U32C]	0.47
GGCAGAGCUCAACACAGCGUGGAAAAGUGGCGGUGGCUAGACUGCC [C23A U32G]	0.22
GGCAGAGCUCAACACAGCGUGGAAAAGUGGCAGUGGCUAGACUGCC [C23A U32A]	0.11
GGCAGAGCUCAACACAGCGUGGGAAAGUGGCUGUGGCUAGACUGCG [C23G C46G]	0.6
GGCAGAGCUCAACACAGCGUGGGAAAGUGGCUGUGGCUAGACUGCU [C23G C46U]	1
GGCAGAGCUCAACACAGCGUGGGAAAGUGGCUGUGGCUAGACUGCA [C23G C46A]	1.07
GGCAGAGCUCAACACAGCGUGGAAAAGUGGCUGUGGCUACACUGCC [C23A G40C]	0.15
GGCAGAGCUCAACACAGCGUGGAAAAGUGGCUGUGGCUAAACUGCC [C23A G40A]	0.14
GGCAGAGCUCAACACAGCGUGGAAAAGUGGCUGUGGCUAUACUGCC [C23A G40U]	0.14
GGCAGAGCUCAACACAGCGUGGGAAAGUGGCUGUGGCUAGACUUCC [C23G G44U]	0.16
GGCAGAGCUCAACACAGCGUGGGAAAGUGGCUGUGGCUAGACUCCC [C23G G44C]	0.2
GGCAGAGCUCAACACAGCGUGGGAAAGUGGCUGUGGCUAGACUACC [C23G G44A]	0.41
GGCAGAGCUCAACACAGCGUGGGAAAGUGGCUGUUGCUAGACUGCC [C23G G35U]	0.11
GGCAGAGCUCAACACAGCGUGGGAAAGUGGCUGUAGCUAGACUGCC [C23G G35A]	0.14

Variant	self-cleavage
GGCAGAGCUCAACACAGCGUGGGAAAGUGGCUGUCGCUAGACUGCC [C23G G35C]	0.12
GGCAGAGCUCAACACAGCGUGGGAAAGUGGCUGUGGCUAGACUGGC [C23G C45G]	0.77
GGCAGAGCUCAACACAGCGUGGGAAAGUGGCUGUGGCUAGACUGAC [C23G C45A]	0.79
GGCAGAGCUCAACACAGCGUGGGAAAGUGGCUGUGGCUAGACUGUC [C23G C45U]	0.97
GGCAGAGCUCAACACAGCGUGGGAAAGUGGCUGUGGCUAGACCGCC [C23G U43C]	0.24
GGCAGAGCUCAACACAGCGUGGGAAAGUGGCUGUGGCUAGACAGCC [C23G U43A]	0.08
GGCAGAGCUCAACACAGCGUGGGAUAGUGGCUGUGGCUAGACUGCC [C23G A25U]	0.72
GGCAGAGCUCAACACAGCGUGGGAGAGUGGCUGUGGCUAGACUGCC [C23G A25G]	1
GGCAGAGCUCAACACAGCGUGGGACAGUGGCUGUGGCUAGACUGCC [C23G A25C]	0.69
GGCAGAGCUCAACACAGCGUGGAAAAGUGGCUGUGGCAAGACUGCC [C23A U38A]	0.28
GGCAGAGCUCAACACAGCGUGGAAAAGUGGCUGUGGCCAGACUGCC [C23A U38C]	0.52
GGCAGAGCUCAACACAGCGUGGAAAAGUGGCUGUGGCGAGACUGCC [C23A U38G]	0.02
GGCAGAGCUCAACACAGCGUGGAAAAGUGGCUGUGGCUAGACAGCC [C23A U43A]	0.1
GGCAGAGCUCAACACAGCGUGGAAAAGUGGCUGUGGCUAGACCGCC [C23A U43C]	0.08
GGCAGAGCUCAACACAGCGUGGAAAAGUGGCUGUGGCUAGACGGCC [C23A U43G]	0.02
GGCAGAGCUCAACACAGCGUGGGAAAGUGGCUGGGGCUAGACUGCC [C23G U34G]	0.23
GGCAGAGCUCAACACAGCGUGGGAAAGUGGCUGCGGCUAGACUGCC [C23G U34C]	0.32
GGCAGAGCUCAACACAGCGUGGGAAAGUGGCUGAGGCUAGACUGCC [C23G U34A]	0.09
